Assay results from patent US20170145391.

What was measured:
His-S6K1C = His-S6K1C (UniProt P23443)
4E-BP1 (Calbiochem) = 4E-BP1 (Calbiochem) (UniProt Q13541)
Sequence of 4E-BP1 (Calbiochem) (Q13541 whole entry): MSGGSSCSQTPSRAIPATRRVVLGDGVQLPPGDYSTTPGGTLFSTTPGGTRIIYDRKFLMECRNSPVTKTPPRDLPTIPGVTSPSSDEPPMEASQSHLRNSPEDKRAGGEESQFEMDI

Sequence of His-S6K1C (P23443 332-502): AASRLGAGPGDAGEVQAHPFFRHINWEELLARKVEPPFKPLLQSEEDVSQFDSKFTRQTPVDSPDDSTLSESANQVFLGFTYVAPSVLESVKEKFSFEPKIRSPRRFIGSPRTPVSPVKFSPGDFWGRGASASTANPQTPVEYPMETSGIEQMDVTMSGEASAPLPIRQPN

## FLAG-mTORα
His-S6K1C
  mTOR in vitro kinase assay; immunoblot with phosphospecific antibody pT389-S6K1: mTORβ can phosphorylate both S6K1 and 4E-BP1 in vitro, but to a lesser extent than mTORα
4E-BP1 (Calbiochem)
  mTOR in vitro kinase assay; immunoblot with phosphospecific antibody pS65-4E-BP1: mTORβ can phosphorylate both S6K1 and 4E-BP1 in vitro, but to a lesser extent than mTORα
